Assay results as given in PMC6960015.

Target: GST-ArhGAP12 ΔNΔP R582A (mouse (NIH 3T3 cDNA library)) (UniProt S4R248)
Assay: BLI

fold reduction of binding affinity against wild type: 1300 fold
Substance: Rabbit skeletal muscle LatB-actin (from UniProt P68135 1-377) (natural protein)
